B1: Paired immunoglobulin-like type 2 receptor alpha (Homo sapiens), Q9UKJ1 (parent)
chain: MGRPLLLPLLPLLLPPAFLQPSGSTGSGPSYLYGVTQPKHLSASMGGSVEIPFSFYYPWELATAPDVRISWRRGHFHRQSFYSTRPPSIHKDYVNRLFLNWTEGQKSGFLRISNLQKQDQSVYFCRVELDTRSSGRQQWQSIEGTKLSITQAVTTTTQRPSSMTTTWRLSSTTTTTGLRVTQGKRRSDSWHISLETAVGVAVAVTVLGIMILGLICLLRWRRRKGQQRTKATTPAREPFQNTEEPYENIRNEGQNTDPKLNPKDDGIVYASLALSSSTSPRAPPSHRPLKSPQNETLYSVLKA
partner: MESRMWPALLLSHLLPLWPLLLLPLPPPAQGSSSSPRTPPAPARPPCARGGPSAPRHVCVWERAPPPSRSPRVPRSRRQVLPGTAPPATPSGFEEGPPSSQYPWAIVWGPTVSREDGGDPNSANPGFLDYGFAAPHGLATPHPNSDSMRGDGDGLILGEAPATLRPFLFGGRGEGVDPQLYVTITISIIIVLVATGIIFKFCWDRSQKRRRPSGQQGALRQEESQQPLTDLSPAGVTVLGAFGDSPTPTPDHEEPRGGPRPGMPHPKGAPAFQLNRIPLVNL
B2: Paired immunoglobulin-like type 2 receptor alpha (Homo sapiens), Q9UKJ1 (parent)
chain: B1 chain
partner: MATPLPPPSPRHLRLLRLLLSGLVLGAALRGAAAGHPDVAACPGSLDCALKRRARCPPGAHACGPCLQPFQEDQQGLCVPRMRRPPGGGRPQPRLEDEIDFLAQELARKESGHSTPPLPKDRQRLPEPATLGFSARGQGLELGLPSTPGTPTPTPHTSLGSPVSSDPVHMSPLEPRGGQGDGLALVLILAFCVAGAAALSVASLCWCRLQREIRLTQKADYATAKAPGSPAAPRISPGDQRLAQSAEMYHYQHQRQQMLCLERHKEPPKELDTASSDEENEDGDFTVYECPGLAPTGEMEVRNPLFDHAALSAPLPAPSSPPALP
B3: Paired immunoglobulin-like type 2 receptor alpha (Homo sapiens), Q9UKJ1 (parent)
chain: B1 chain

Variants of: B1
Conditions: with pianp_human PIANP

| Variant | effect of a mutation on the interaction |
| --- | --- |
| F76A | disrupting interaction strength |
| R72A | disrupting interaction strength |
| S80G | increasing interaction strength |
| R78G | increasing interaction strength |

Variants of: B2
Conditions: with npdc1_human NPDC1, Q9NQX5

| Variant | effect of a mutation on the interaction |
| --- | --- |
| R78G | increasing interaction strength |
| S141A | increasing interaction strength |
| S80G | increasing interaction strength |
| F76A | disrupting interaction strength |
| R72A | disrupting interaction strength |
| Q140A | disrupting interaction strength |

Variants of: B2
Conditions: with npdc1_human NPDC1, Q9NQX5
Remark: another data set of the same source

| Variant | effect of a mutation on the interaction |
| --- | --- |
| Q140A | decreasing interaction strength |

Variants of: B3
Conditions: with co4a_human C4A

| Variant | effect of a mutation on the interaction |
| --- | --- |
| S80G | increasing interaction strength |
| R78G | increasing interaction strength |
| F76A | disrupting interaction strength |

— IntAct's records for PubMed 30388101
